Reference: the nanobody polyreactivity screen of Harvey et al. (2022)

Assay: yeast display, Sf9 membrane polyspecificity reagent, FACS + sequencing; frameworks hold sequencing errors
How it was run: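 Nanobodies came from a synthetic yeast display library in Saccharomyces cerevisiae BJ5465, induced with galactose for 36–48 hours and stained for 1 hour at 4 °C with 10% biotinylated, detergent-solubilized Sf9 membrane reagent. Cells were enriched on streptavidin microbeads and then FACS-sorted, with low and high (top ~1%) gates set on anti-HA fluorescence for expression and streptavidin fluorescence for reagent binding. Each polyreactivity label reflects the gate a clone came from. Genes were amplified by colony PCR, sequenced by MiSeq 2 × 250 and filtered by CDR length.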

## QVQLVESGGGLVQAGGSLRLSCAASGSTFAGYVMGWSRQAPGKERELVAAISRSGGSTYYADSVKGRFTISRDNAKNTVYLQMNSLKPEDTAVYYCNARYNTQRYRFLVQGDYWGQGTQVTVSS
  polyreactivity (PSR sort gate): high polyreactivity

## QVQLVESGGGLVQAGGSLRLSCAASGSTFAGYVMGWYRQAPGKERELVAGISYRGGRTYYADSVKGRFTISRDNAKNTVYLQMNSLKPEDTAVYYCAAENAVTGTDGEYYYWGQGTQVTVSS
  polyreactivity (PSR sort gate): high polyreactivity

## QVQLVESGGGLVQAGGSLRLSCAASGSTFAGYVMGWYRQAPGKERELVASKSWSGGSTYYADSVKGRFTISRDNAKNTVNLQMNSLKPEETAVYYSNTRRYERTDSAYPDHDYPGYYWGQATQVTVSS
  polyreactivity (PSR sort gate): low polyreactivity

## QVQLVESGGGLVQAGGSLRLSCAASGSTFAHKAMGWYRQAPGKEGEFVAGISTNGGSTYYADSVKGRFTISRDNAKNTVYLQMNSLKPEDTAVYYCAAVNYYDQYGDYYWGQGTQVTVSS
  polyreactivity (PSR sort gate): low polyreactivity

## QVQLVESGGGLVQAGGSLRLSCAASGSTFAIYAMGWDRGAPGKEREVVAAISWRTGSTYYADSVKGRFTISRDNAKNTVYLQMNSLKPEDTAVYYCAAEFWFFAGWAYEYWGHGTQVTVSS
  polyreactivity (PSR sort gate): high polyreactivity

## QVQLVESGGGLVQAGGSLRLSCAASGSTFAIYAMGWYRKSPGKERELVASISGGSTNYADSVKGRFTISRDNAKNTVYLQMNSLKPEDTSVYYCAARGALHHWYRFDYWGQGTQVTLSS
  polyreactivity (PSR sort gate): low polyreactivity

## QVQLVESGGGLVQAGGSLRLSCAASGSTFAIYPMGWYRPAPGKERELVAAITRSGGNTYYADSVKGRFTISRDNAKNTVYLQMNSLKPEDTAVYYCNAETYYWSAYAQYEYWGQGTQVTVSS
  polyreactivity (PSR sort gate): high polyreactivity

## QVQLVESGGGLVQAGGSLRLSCAASGSTFAIYPMGWYRQAPGKETALVAAITRSGGNTYYADSVKGRFTISRDNAKNTVYLQMNSLKPEDTAVYYCNAETYYWSAYAQYDYWGQGTQVTVSS
  polyreactivity (PSR sort gate): high polyreactivity

## QVQLVESGGGLVQAGGSLRLSCAASGSTFAKYAMGWYRQAPGKERELVAAISLSGGSTYYADSVKGRFTISRDNAKNTVYLQMNSLKPEDTAVYYCNTPPSRYVRYGIYRYDYWGQGTQVTVSS
  polyreactivity (PSR sort gate): high polyreactivity

## QVQLVESGGGLVQAGGSLRLSCAASGSTFALYPMGCYRQAPGKERELVAGITIDGSTNYADSVKGRFTISRDNAKNTVYLQMNSLKPEDTAVYYCNADSYKYPLLKYRSDYWGQGTQVTVSS
  polyreactivity (PSR sort gate): low polyreactivity

## QVQLVESGGGLVQAGGSLRLSCAASGSTFANNDMGWYRQAPGIEREMVADIRSGGNTNYADSVKGRFTISRDNAKNTVVLQMHSVKPEDTAVYYCATDGYRIDVYQPDYRYDYWGQGTQVTVSS
  polyreactivity (PSR sort gate): low polyreactivity

## QVQLVESGGGLVQAGGSLRLSCAASGSTFANYAMGWYRQAPGKERELVAAISRGGNTYYADSVKGRFTISRDNAKNTVYLQMNSLKPEDTAVYYCAARAPRFSRSSQPGDYWGQGTQVTVSS
  polyreactivity (PSR sort gate): high polyreactivity

## QVQLVESGGGLVQAGGSLRLSCAASGSTFANYAMGWYRQAPGKERELVAVISWGGGSTYYADSVKGRFTISRDNAKNTVYLQMNSLKPEDTAVYYCAAVYDEYQTTHEYDYWGQGTQVNVSS
  polyreactivity (PSR sort gate): low polyreactivity

## QVQLVESGGGLVQAGGSLRLSCAASGSTFAPNAMGWYRQAPGKERELVASIRRGGSTHYADSVKGRFTISRDNAKNTVYVQMNSLKPEDTAVYYCAKDVWRHYLNLYDYWGQGTQVTVSS
  polyreactivity (PSR sort gate): low polyreactivity

## QVQLVESGGGLVQAGGSLRLSCAASGSTFAPNTMGWYRQAPGKERELVARITTSDGSTTYADSVKGRFTISRDYAKNTVFFQMNILNPEDTAVYYCARDNTFCTWPSSLYDYWGQGTQVTVSS
  polyreactivity (PSR sort gate): low polyreactivity

## QVQLVESGGGLVQAGGSLRLSCAASGSTFAPYAMGWYRQAPGKERELVAVITWSGGRTYYADSVKGRFTISRDNAKNTVYLQMNSLKPEDTAVYYCNDVPLLQGFNYWGQGTQGTVSS
  polyreactivity (PSR sort gate): high polyreactivity

## QVQLVESGGGLVQAGGSLRLSCAASGSTFAPYAMGWYRQAPGTERELVAALTTGGSTNYADYVKGRFTISRDNATNTVYLQMNSLKPEDTAVYYCNAEYGGGVDGTYKYYSEYDYWGQGTQVTVSS
  polyreactivity (PSR sort gate): low polyreactivity

## QVQLVESGGGLVQAGGSLRLSCAASGSTFAQNVMGWYRQAPGKERELVAAITSSGSTNYADSVKGRFTISRDNAKNTVYLQMNILKPEDTAVFYCAKDVLAPYSRHDYWGQGTQVTVSS
  polyreactivity (PSR sort gate): low polyreactivity

## QVQLVESGGGLVQAGGSLRLSCAASGSTFAQYAMGWYRQAPAKERELVAVISKRGGRTYYADSVKGRFTISRDNGKNTVYLQMNSLKPEDTAGYYCAADSGGPGYAMDYWGQGTQVTVSS
  polyreactivity (PSR sort gate): high polyreactivity

## QVQLVESGGGLVQAGGSLRLSCAASGSTFARYAMGWYRQAPGKERELVAAISITGSTYYADSVKGRFTISRDNAKNTVYLQMNSLNPEDTAVYYCNVKSKYRYGYWGQGTQVTVSS
  polyreactivity (PSR sort gate): high polyreactivity

## QVQLVESGGGLVQAGGSLRLSCAASGSTFASNAMGWYRQAPGKERELVAAISGSGGRTYYADSVKGRFTISRDNAKNTVYLQMNSLKQEDTAVYYCAADWVRRYNYWGQGTQVTVSS
  polyreactivity (PSR sort gate): high polyreactivity

## QVQLVESGGGLVQAGGSLRLSCAASGSTFASNTMGWYRQAPGKERELVAAITQSGGTTYYAESVKGRFTISRDNAKNTVTLQMNSLKPEDTAVYYCATDVGYFYTVVGGYDYWGQGTQVTVSS
  polyreactivity (PSR sort gate): low polyreactivity

## QVQLVESGGGLVQAGGSLRLSCAASGSTFATYAMGWYRQAPGKERELVAAIRVSGGTTYADSVKGRFTISRDNAKNTVYLQMNSLKPEDNAVYYCAATGWEVYDIFDYWVQGTQVTVSS
  polyreactivity (PSR sort gate): low polyreactivity

## QVQLVESGGGLVQAGGSLRLSCAASGSTFATYTMGWYRQAPGKERELVAAISVSGSRTYYADSVKGRFTISRDNAKNTVYLQMNSLKPEDTAVYYCNADPPVKLYLYDYWGQGTQVTVSS
  polyreactivity (PSR sort gate): high polyreactivity

## QVQLVESGGGLVQAGGSLRLSCAASGSTFATYVMGWYRQAPGKETELVAAISSSGSTNYADSVKGRFTISRDNAKNTVYLQMNSLKPEYTAVYYCAARYYRLTDRPYNPIVSYGYWGQGTQVTVSS
  polyreactivity (PSR sort gate): high polyreactivity

## QVQLVESGGGLVQAGGSLRLSCAASGSTFAVYAMGWNRQAPGKERELVASITRGGSTYYADSVKGRFTISRDNAKYTVYLQMNSLKPEDTAVYYCADSITHYWYGYWGQGTQVTVSS
  polyreactivity (PSR sort gate): high polyreactivity

## QVQLVESGGGLVQAGGSLRLSCAASGSTFAWYAMGWYRQAPGKERELVAAISSGGRTYYADSVKGRFTISRDNAKNTVYLQMNSLKPEDTAVYYCNAVDWAYGMDYWGQGTQVTVSS
  polyreactivity (PSR sort gate): low polyreactivity

## QVQLVESGGGLVQAGGSLRLSCAASGSTFAWYTMGWYRQAPGKERELVASITSTGSTNYADSVKGRFTISRDNAKNTVYLQMNSLKPEDTAVYYCAAAVRAWYRRLYDYWGQGTQVTVSS
  polyreactivity (PSR sort gate): high polyreactivity

## QVQLVESGGGLVQAGGSLRLSCAASGSTFAYNAMGWYRQAPGKERELVAAITRSGGSTYYADSVKGRFTISRDNAKNTVYLQKNSLKPEDTAVYYCNKASGGYYVTSLYAYRYYYWGQGTQVTVSS
  polyreactivity (PSR sort gate): high polyreactivity

## QVQLVESGGGLVQAGGSLRLSCAASGSTFAYNDMGWYRQAPGKERELVADSRSGGNTNYADSVKGRFTISRDNAKNTVYLQMNSLKREDTAVYYCATDGYRIDVFHPDYRYDYWGHGTQVTVSS
  polyreactivity (PSR sort gate): low polyreactivity

## QVQLVESGGGLVQAGGSLRLSCAASGSTFAYNTMGWYRQAPGKERELVAAISQRGGSTYADSVKGRFTISRDNAKNTVYLQMNSLKPEVTAVYYCNKRNVYYSYPFDYDYWGQGTQVTVSS
  polyreactivity (PSR sort gate): low polyreactivity
